Test results from patent publication EP4421085A1.

Tests used:
[1] = target: recombinant human alpha synuclein A30P (human) (UniProt P37840); assay: cell-based or functional assay
[2] = target: recombinant human wild type alpha synuclein (human) (UniProt P37840); assay: cell-based or functional assay
[3] = target: recombinant human alpha synuclein A53T (human) (UniProt P37840); assay: cell-based or functional assay
[4] = target: recombinant human alpha synuclein E46K (human) (UniProt P37840); assay: cell-based or functional assay
[5] = target: biotinylated alpha synuclein (aSN) 1-140 (UniProt P37840); assay: SPR (Biacore 8K), biotinylated aSN on SA chip, binder as analyte, 25 °C
[6] = target: biotinylated alpha synuclein (aSN) 1-140 (UniProt P37840); assay: SPR (Biacore 8K), biotinylated aSN on SA chip, binder as analyte, 37 °C

Ranking of the binders in figure 5 (ThT aggregation assay) [1]: 5 rank | Ranking of the binders in figure 5 (ThT aggregation assay) [2]: 3 rank | Ranking of the binders in figure 5 (ThT aggregation assay) [3]: 6 rank | Ranking of the binders in figure 5 (ThT aggregation assay) [4]: 4 rank | Kd [5]: 72.2 nM | koff [5]: 0.000114 s⁻¹ | kon [5]: 1580 M⁻¹ s⁻¹ | Kd [6]: 64.9 nM | koff [6]: 0.000252 s⁻¹ | kon [6]: 3880 M⁻¹ s⁻¹
Substance: AS69 (designed binder)
